Measured values reported in US20030170748A1 (IAMS, published 2003).
Where two headings read alike, the source gives them in different places. Square brackets hold non-standard residues; d marks the D form. Ends that are not written are not given here. βAla = NCCC(=O)O

How the values were obtained:
[1] = target: T1, canine PepT1 (cPepT1) (canine, UniProt Q8WMX5 1-708); test: cell-based or functional assay
T1 sequence: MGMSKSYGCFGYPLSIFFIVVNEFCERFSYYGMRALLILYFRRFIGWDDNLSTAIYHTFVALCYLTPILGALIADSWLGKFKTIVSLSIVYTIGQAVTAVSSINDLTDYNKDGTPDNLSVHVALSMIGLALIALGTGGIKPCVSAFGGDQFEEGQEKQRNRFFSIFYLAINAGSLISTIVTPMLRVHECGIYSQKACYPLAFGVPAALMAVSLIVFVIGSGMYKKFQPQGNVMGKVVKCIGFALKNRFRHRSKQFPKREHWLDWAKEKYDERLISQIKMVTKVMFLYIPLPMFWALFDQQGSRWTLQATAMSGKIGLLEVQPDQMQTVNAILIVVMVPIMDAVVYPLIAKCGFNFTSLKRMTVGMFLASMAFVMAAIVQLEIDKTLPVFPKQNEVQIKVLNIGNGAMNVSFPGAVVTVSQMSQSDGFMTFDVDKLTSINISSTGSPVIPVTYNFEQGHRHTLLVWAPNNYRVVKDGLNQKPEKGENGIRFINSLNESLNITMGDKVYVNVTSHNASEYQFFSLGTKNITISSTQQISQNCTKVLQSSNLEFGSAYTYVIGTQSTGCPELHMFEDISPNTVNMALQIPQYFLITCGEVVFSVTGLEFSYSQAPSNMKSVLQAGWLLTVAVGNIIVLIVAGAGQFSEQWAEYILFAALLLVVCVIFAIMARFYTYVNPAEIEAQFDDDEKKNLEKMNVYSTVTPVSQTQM

[2] = target: T1, canine PepT1 (cPepT1); test: inhibition of H+-dependent 100 µM [3H]GlySar uptake by MDCK cells; Ki by graphical analysis of IC50 experiments; competitor GlySar
[3] = target: T1, canine PepT1 (cPepT1); test: cell-based or functional assay; remark: listed apart in the source
[4] = target: T1, canine PepT1 (cPepT1); test: cell-based or functional assay; remark: listed apart in the source

LeuMet (peptide) gave a % inhibition of H+-dependent GlySar uptake (100 µM substrate, 100 µM GlySar, MDCK cells; Leu-containing peptides experiment) [1] of 80%.

Work on MetMet (peptide) yielded a % inhibition of H+-dependent GlySar uptake (1 mM substrate, 100 µM GlySar, MDCK cells) [1] of 100%.

Work on MetPhe (peptide) yielded a % inhibition of H+-dependent GlySar uptake (1 mM substrate, 100 µM GlySar, MDCK cells) [1] of 100%.

TrpGlyGly (peptide) was tested, and the % inhibition of H+-dependent GlySar uptake (1 mM substrate, 100 µM GlySar, MDCK cells) [1] was 33% and the inhibition of 100 µM GlySar uptake by 1 mM peptide, MDCK cells [1] was 73%.

Molecule TrpLeu (peptide) has a % inhibition of H+-dependent GlySar uptake (100 µM substrate, 100 µM GlySar, MDCK cells; Leu-containing peptides experiment) [1] of 94%, a % inhibition of H+-dependent GlySar uptake (100 µM substrate, 100 µM GlySar, MDCK cells; Trp-containing peptides experiment) [1] of 92% and a % inhibition of H+-dependent GlySar uptake (1 mM substrate, 100 µM GlySar, MDCK cells) [1] of 116%. For the same molecule, the % inhibition of pH 6.0 uptake, 10 mM competitor, collagen [1] was 8%, the % inhibition of pH 6.0 uptake, 10 mM competitor, poly-L-lysine [1] was 8.1% and the Glysylsarcosine uptake, pH 6.0, with 10 mM competitor, MDCK cells on collagen (pmol 30 min^-1 mg^-1 protein) [1] was 5.21. The Glysylsarcosine uptake, pH 6.0, with 10 mM competitor, MDCK cells on poly-L-lysine (pmol 30 min^-1 mg^-1 protein) [1] was 3.44, the inhibition of H+-dependent 100 µM GlySar uptake by 1 mM peptide, MDCK cells [1] was 117% and the inhibition of H+-dependent GlySar uptake by 10 mM peptide, MDCK cells on collagen [1] was 92%. For the same molecule, the inhibition of H+-dependent GlySar uptake by 10 mM peptide, MDCK cells on poly-L-lysine [1] was 92% and the Ki [2] was 200 nM.

TrpTrp (peptide) was tested, and the % inhibition of H+-dependent GlySar uptake (100 µM substrate, 100 µM GlySar, MDCK cells; Trp-containing peptides experiment) [1] was 62%, the % inhibition of H+-dependent GlySar uptake (1 mM substrate, 100 µM GlySar, MDCK cells) [1] was 119% and the Ki [2] was 750 nM.

Molecule glycylsarcosine (GlySar) (peptide) has a Km of H+-dependent GlySar uptake by MDCK cells (FIG. 12 legend) [1] of 1 mM, an apparent Km of H+-dependent GlySar uptake by MDCK cells grown in LHM [1] of 1.1 mM and an apparent Km of total GlySar uptake by confluent MDCK cells, pH 6.0 [1] of 4 mM. For the same molecule, the self-inhibition of 100 µM GlySar uptake by 1 mM GlySar, MDCK cells [1] was 64%.

With GGGG [[Gly]4] the “% inhibition of H+-dependent GlySar uptake (1 mM substrate, 100 µM GlySar, MDCK cells)” value [3] was 19% and the “inhibition of H+-dependent 100 µM GlySar uptake by 1 mM peptide, MDCK cells” value [4] was 23%.

With [βAla]-His [Carnosine (β-AlaHis)] the “% inhibition of H+-dependent GlySar uptake (1 mM substrate, 100 µM GlySar, MDCK cells)” value [3] was 50%.

MGMM [MetGlyMetMet (SEQ ID NO:10)] was tested, and the “% inhibition of H+-dependent GlySar uptake (1 mM substrate, 100 µM GlySar, MDCK cells)” value [3] was 50%.

In the case of GGGGG [[Gly]5], the “% inhibition of H+-dependent GlySar uptake (1 mM substrate, 100 µM GlySar, MDCK cells)” value [3] is reported as 9% and the “inhibition of H+-dependent 100 µM GlySar uptake by 1 mM peptide, MDCK cells” value [4] is reported as 7.3%.

For LW [LeuTrp], the “% inhibition of H+-dependent GlySar uptake (1 mM substrate, 100 µM GlySar, MDCK cells)” value [3] was 113% and the “inhibition of H+-dependent 100 µM GlySar uptake by 1 mM peptide, MDCK cells” value [4] was 114%.
